Laboratory results: PMC11106487
Several values for one entry are separate records, joined by “and”; a condition that tells them apart may be missing. Equal values may be shown once.

Assays:
[1] = target: GFP-FR, stably expressed in CHO cells; assay: number and brightness (N&B); live CHO cells, 2 days in culture, cell surface imaged at the cell periphery; untreated control
[2] = target: GFP-FR (GFP fused to the GPI attachment signal of the folate receptor), expressed in MDCK cells; assay: number and brightness (N&B); live polarized MDCK cells, Golgi pool: apical trypsin 25 ug/mL for 25 min to remove the surface pool, untreated (CTR), imaged at the Golgi level
[3] = target: GFP-FR (GFP fused to the GPI attachment signal of the folate receptor), expressed in MDCK cells; assay: number and brightness (N&B); live polarized MDCK cells on filters, apical surface, CO2-independent medium pH 7.4; control cells and cells treated with latrunculin A (6 uM, 5 min), jasplakinolide (5 uM, 5 min) or blebbistatin (50 uM, 90 min); also after EGTA followed by calcium replenishment for 3 h; B-values ascribed to oligomer classes by a calibration curve of monomeric, dimeric and trimeric GFP
[4] = target: GFP-FR (GFP fused to the GPI attachment signal of the folate receptor), expressed in MDCK cells; assay: number and brightness (N&B); live polarized MDCK cells, plasma membrane pool only: cycloheximide 90 min, then with or without EGTA still in the presence of cycloheximide

brightness (B) [1]	stoichiometry N [1]	mean brightness (B), Golgi pool, control [2]	brightness (B) [3]	brightness (B) upon latrunculin A [3]	mean brightness (B), control of the EGTA experiment [3]	stoichiometry N [3]	mean brightness (B), plasma membrane pool, control [4]	mean brightness (B), plasma membrane pool, upon EGTA [4]	Substance
1.3	3 and 4	–	–	–	–	–	–	–	GFP-FR, stably expressed in CHO cells
–	–	1.2	1.21	1.23	1.29	3 and 4	1.19	1.2	GFP-FR (GFP fused to the GPI attachment signal of the folate receptor), expressed in MDCK cells
